Patent US20220289795, “EFFICIENT METHOD FOR PREPARING PPR PROTEIN AND USE OF THE SAME” (EditForce, Inc., published 2022)

Tests used:
Test in all cases: ELONA; RPB-ELISA
v3.1_PPR21 = biological target: T1, v3.1_PPR21 (Artificial Sequence); conditions: tags: luciferase fusion; label: 5'-biotin
T1 chain: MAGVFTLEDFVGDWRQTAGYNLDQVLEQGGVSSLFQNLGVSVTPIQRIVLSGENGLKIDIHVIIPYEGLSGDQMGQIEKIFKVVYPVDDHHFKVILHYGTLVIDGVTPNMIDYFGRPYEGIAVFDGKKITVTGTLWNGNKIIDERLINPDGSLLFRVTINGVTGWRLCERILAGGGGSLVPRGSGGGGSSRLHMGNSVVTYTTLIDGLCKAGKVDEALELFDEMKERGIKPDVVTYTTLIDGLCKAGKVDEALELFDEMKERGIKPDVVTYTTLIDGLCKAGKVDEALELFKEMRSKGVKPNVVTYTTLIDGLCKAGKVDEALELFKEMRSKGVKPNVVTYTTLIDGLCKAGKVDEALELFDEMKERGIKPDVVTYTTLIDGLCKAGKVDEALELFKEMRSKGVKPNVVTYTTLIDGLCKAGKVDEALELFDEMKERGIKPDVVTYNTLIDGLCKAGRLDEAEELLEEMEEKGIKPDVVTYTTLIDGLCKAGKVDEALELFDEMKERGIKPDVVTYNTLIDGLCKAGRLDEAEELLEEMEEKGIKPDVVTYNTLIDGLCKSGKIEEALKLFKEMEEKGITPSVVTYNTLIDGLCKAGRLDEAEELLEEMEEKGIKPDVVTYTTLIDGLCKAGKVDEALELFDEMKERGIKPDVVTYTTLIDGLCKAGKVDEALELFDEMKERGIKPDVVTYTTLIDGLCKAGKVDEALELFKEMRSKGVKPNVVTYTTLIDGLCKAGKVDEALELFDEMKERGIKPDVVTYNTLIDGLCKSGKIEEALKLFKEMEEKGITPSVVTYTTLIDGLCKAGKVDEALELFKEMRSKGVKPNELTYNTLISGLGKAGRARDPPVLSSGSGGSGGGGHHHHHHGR

NL_v2_PPR21 = biological target: T2, NL_v2_PPR21 (Artificial Sequence); conditions: tags: N-term luciferase, C-term 6xHis; label: 5'-biotin
T2 chain: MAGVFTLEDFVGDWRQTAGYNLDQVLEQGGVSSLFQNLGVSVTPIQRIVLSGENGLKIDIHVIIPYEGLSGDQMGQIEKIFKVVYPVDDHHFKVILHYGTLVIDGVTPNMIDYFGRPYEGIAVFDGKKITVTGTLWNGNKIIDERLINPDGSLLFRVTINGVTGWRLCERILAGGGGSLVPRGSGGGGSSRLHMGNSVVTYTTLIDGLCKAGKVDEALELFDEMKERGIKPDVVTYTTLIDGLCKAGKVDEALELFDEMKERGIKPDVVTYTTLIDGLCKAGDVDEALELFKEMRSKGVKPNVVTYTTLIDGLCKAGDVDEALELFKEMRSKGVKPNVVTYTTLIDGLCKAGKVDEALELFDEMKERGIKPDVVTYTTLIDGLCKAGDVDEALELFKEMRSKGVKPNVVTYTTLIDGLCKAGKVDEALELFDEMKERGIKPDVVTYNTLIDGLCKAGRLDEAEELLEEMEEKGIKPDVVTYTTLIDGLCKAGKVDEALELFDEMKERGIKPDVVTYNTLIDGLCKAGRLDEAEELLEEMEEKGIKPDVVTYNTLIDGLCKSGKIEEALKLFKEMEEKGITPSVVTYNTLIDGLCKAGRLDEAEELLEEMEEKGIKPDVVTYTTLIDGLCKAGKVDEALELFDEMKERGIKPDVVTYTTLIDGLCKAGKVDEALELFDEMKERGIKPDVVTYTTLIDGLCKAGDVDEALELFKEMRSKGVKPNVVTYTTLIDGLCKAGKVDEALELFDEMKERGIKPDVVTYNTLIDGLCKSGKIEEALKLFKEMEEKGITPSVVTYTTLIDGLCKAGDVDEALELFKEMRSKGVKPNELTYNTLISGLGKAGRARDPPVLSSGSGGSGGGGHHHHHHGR

v3.1_PPR20 = biological target: T3, v3.1_PPR20 (Artificial Sequence); conditions: tags: luciferase fusion; label: 5'-biotin
T3 chain: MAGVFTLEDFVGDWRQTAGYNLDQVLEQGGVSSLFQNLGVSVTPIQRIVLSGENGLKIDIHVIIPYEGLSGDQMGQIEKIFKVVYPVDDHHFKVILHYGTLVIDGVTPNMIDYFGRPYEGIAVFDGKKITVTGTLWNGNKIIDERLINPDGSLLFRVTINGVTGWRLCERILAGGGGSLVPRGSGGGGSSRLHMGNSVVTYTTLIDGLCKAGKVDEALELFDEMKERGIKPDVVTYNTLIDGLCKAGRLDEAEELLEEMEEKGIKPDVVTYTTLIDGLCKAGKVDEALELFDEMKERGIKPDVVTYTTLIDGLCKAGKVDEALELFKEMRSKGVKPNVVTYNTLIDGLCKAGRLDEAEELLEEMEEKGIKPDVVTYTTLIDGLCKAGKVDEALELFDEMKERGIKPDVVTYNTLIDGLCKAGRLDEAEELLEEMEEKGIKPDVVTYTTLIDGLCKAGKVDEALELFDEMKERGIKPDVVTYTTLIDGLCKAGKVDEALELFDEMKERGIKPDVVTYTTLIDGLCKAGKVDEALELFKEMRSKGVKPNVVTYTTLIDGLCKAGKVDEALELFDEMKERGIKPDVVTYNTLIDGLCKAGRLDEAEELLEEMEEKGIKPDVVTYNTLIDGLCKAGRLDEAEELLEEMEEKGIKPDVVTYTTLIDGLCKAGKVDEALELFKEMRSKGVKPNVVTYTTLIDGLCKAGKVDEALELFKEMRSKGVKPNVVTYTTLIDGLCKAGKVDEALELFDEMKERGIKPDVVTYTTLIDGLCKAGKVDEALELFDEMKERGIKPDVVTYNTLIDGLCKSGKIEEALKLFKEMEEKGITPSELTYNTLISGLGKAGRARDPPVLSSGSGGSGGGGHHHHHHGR

NL_v2_PPR20 = biological target: T4, NL_v2_PPR20 (Artificial Sequence); conditions: tags: N-term luciferase, C-term 6xHis; label: 5'-biotin
T4 chain: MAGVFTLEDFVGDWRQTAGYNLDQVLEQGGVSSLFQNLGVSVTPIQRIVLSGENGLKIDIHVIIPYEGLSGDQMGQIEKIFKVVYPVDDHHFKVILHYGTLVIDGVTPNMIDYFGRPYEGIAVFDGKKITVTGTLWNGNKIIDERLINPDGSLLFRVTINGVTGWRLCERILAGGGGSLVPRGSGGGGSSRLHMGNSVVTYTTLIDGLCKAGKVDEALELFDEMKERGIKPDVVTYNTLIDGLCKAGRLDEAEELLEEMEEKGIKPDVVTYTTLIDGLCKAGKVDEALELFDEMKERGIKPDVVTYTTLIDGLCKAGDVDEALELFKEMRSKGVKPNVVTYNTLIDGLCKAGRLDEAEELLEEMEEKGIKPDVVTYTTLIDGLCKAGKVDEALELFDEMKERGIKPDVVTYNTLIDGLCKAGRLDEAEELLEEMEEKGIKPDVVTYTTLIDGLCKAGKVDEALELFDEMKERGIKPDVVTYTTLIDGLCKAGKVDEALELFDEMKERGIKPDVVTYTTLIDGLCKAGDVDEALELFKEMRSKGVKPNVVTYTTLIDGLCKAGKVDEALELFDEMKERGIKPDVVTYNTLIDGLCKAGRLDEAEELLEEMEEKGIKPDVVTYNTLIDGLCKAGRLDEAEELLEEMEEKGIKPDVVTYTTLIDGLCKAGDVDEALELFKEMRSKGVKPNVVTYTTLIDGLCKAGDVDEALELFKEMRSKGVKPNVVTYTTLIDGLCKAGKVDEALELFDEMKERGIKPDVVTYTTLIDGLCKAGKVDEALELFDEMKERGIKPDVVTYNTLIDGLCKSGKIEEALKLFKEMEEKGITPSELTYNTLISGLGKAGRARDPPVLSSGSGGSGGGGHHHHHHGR

NL_v2_PPR19 = biological target: T5, NL_v2_PPR19 (Artificial Sequence); conditions: tags: N-term luciferase, C-term 6xHis; label: 5'-biotin
T5 chain: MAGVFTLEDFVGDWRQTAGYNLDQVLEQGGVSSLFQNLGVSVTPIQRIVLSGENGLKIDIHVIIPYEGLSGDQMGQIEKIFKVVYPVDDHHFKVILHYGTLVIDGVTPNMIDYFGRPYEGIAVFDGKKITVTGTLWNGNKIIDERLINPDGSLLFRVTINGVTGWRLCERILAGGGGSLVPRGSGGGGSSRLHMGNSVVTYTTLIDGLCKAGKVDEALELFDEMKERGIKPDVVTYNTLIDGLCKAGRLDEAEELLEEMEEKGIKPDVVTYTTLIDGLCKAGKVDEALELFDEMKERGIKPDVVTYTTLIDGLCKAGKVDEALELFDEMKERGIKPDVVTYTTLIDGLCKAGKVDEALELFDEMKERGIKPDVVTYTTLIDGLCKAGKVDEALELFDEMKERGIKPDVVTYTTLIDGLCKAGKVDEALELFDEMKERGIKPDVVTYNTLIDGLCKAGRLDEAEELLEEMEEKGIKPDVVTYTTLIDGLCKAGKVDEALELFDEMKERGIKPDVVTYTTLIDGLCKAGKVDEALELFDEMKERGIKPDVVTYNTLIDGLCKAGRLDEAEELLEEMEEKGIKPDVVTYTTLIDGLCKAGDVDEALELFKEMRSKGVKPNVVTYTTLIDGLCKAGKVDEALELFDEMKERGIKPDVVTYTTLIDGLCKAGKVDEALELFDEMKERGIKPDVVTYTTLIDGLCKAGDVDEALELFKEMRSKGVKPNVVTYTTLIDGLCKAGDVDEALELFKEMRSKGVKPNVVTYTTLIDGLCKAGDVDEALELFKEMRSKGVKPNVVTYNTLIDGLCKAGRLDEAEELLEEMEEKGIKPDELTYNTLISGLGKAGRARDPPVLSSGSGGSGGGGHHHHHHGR

v3.1_PPR19 = biological target: T6, v3.1_PPR19 (Artificial Sequence); conditions: tags: luciferase fusion; label: 5'-biotin
T6 chain: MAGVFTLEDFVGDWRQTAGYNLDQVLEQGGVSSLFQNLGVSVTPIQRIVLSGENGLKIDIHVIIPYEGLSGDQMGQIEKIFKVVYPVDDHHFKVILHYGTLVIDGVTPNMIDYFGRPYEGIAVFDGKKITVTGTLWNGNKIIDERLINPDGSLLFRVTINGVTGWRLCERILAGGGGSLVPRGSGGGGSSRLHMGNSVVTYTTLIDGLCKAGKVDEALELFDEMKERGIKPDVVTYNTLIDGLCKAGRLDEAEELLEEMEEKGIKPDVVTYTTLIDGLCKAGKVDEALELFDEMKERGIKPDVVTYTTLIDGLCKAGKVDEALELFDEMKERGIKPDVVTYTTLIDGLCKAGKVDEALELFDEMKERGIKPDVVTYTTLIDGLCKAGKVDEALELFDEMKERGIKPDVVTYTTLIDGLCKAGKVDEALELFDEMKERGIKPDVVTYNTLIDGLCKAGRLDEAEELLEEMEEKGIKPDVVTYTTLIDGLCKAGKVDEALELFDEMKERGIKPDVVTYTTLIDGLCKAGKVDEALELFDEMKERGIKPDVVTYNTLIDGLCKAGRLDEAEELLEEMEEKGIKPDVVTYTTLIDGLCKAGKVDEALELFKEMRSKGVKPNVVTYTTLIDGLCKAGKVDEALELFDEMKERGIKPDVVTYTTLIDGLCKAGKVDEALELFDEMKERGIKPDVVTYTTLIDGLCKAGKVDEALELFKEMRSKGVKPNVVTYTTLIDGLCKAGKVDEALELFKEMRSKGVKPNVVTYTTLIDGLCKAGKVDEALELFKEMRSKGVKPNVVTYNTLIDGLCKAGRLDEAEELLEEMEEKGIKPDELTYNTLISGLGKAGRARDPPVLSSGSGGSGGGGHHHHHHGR

**Q.** With GACAUGCGGAAGAGUGUCUGGAGCAGACUG (ssRNA) [RNA_21] as the binder, how does the binding signal (v3.1_PPR21) read?
**A.** The binding signal was 4.9e+06 luminescence.

**Q.** And the binding signal (NL_v2_PPR21)?
**A.** The binding signal was 5e+07 luminescence.

**Q.** GACAUGCGUGAUGUGGAGUUAAGGCGACUG (ssRNA) [RNA_20] was tested. Which binding signal (v3.1_PPR20) did it give?
**A.** Its binding signal is 3.6e+06 luminescence.

**Q.** And the binding signal (NL_v2_PPR20)?
**A.** The binding signal was 1.2e+07 luminescence.

**Q.** With GACAUGCGUGGGGGUGGUAGGAAAUGACUG (ssRNA) [RNA_19] as the binder, how does the binding signal (NL_v2_PPR19) read?
**A.** Its binding signal is 1.3e+07 luminescence.

**Q.** And the binding signal (v3.1_PPR19)?
**A.** The binding signal was 1.3e+07 luminescence.
